Results reported in patent CN106188281A (INST PASTEUR OF SHANGHAI CHINESE ACAD OF SCIENCES, dated 2016).

Tests used:
[1] = molecular target: T1, 诺如病毒GI.1病毒样颗粒 (GI.1 VP1 virus-like particle) (诺如病毒GI.1 (norovirus GI.1), UniProt Q83884 3-530); assay: ELISA, 100 ng GI.1 VLP coated per well
T1 construct: VLP assembled from VP1
T1 sequence: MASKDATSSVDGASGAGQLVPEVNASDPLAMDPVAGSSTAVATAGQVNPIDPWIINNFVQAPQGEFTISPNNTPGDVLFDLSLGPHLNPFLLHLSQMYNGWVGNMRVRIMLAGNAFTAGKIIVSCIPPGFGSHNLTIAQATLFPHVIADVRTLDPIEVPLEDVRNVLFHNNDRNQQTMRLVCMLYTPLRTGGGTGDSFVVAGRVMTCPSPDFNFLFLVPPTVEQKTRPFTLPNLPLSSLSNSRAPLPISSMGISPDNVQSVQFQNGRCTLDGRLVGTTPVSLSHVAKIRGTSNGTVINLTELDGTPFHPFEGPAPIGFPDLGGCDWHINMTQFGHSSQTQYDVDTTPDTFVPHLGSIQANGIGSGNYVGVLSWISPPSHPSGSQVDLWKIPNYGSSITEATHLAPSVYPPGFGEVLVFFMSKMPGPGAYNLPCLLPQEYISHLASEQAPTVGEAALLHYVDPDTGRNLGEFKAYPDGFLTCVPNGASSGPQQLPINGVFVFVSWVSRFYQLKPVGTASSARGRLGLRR

[2] = molecular target: T2, 诺如病毒GII.4病毒样颗粒 (GII.4 VP1 virus-like particle) (诺如病毒GII.4 (norovirus GII.4), UniProt P54635 3-539); assay: blocking ELISA (surrogate neutralisation), VLP to PGM; reference G9
T2 construct: also called GII.4VLP; 天然结构的GII.4病毒样颗粒
T2 chain: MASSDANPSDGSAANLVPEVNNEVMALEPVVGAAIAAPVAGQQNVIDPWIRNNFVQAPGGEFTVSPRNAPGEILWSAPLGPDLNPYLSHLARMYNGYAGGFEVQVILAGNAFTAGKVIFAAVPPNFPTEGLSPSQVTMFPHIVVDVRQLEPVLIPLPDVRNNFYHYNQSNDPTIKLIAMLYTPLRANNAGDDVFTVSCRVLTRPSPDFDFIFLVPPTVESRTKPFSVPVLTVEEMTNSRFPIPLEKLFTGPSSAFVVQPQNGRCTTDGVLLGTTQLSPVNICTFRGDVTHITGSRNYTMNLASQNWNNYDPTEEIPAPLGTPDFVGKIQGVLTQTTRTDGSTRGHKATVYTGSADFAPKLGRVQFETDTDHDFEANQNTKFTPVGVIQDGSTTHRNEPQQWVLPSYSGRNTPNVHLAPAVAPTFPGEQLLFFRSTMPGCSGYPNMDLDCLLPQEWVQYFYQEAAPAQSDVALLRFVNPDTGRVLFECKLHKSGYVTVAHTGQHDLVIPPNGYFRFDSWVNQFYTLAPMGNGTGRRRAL

[3] = molecular target: T2, 诺如病毒GII.4病毒样颗粒 (GII.4 VP1 virus-like …); assay: blocking ELISA (surrogate neutralisation), VLP to PGM; reference D11
[4] = molecular target: T2, 诺如病毒GII.4病毒样颗粒 (GII.4 VP1 virus-like …); assay: blocking ELISA (surrogate neutralisation): mAb titrated against 0.5 ug/ml GII.4 VLP, binding of VLP to coated PGM read

B1: 8E1单抗 (抗诺如病毒GII.4型鼠源单克隆抗体8E1) (antibody, V domains shown)
VH: EIQLQQSGPELMKPGASVKISCKASGYSFTDYYMHWVKQSHGKSLEWIGYIDPFNGDTGYNQKFKVRATLTVDESSTTAYMHLSSLTSDDSAVYYCARDDWGSPFSYWGQGTLVTVSA
VL: DIQMTQSPSSLSASLGESVSLTCRASHDIGSNLDWLQQEPDGTIKRLIYATSTLDSGVPKRFSGSRSGSDYSLTISSLESEDFVEYYCLQYASSPRTFGGGTKLEIKR
notes: Mouse IgG1, kappa; also called m8E1
binding result [1]: no binding (tested: 5ug/ml) | fold of neutralising (blocking) activity against G9 [2]: ~16 fold | fold of neutralising (blocking) activity against D11 [3]: > 2 fold | EC50 [4]: 0.0436 µg/mL
